Laboratory results taken from IntAct's records for PubMed 22796944.

Key:
[1] = biological target: rtf1_yeast RTF1 (UniProt P53064)
[2] = biological target: cdc73_yeast CDC73 (UniProt Q06697)
Sequence of cdc73_yeast CDC73 (Q06697 whole entry): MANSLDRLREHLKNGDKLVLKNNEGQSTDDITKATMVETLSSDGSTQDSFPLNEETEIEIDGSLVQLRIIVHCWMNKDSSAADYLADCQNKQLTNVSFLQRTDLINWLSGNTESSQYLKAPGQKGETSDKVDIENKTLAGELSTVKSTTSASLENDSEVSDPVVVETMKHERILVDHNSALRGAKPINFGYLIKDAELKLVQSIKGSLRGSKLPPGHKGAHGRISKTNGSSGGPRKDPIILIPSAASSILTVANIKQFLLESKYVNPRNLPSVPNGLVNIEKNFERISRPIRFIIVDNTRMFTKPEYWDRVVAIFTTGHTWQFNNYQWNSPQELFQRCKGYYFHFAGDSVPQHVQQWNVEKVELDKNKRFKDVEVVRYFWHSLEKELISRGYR

Sequence of rtf1_yeast RTF1 (P53064 whole entry): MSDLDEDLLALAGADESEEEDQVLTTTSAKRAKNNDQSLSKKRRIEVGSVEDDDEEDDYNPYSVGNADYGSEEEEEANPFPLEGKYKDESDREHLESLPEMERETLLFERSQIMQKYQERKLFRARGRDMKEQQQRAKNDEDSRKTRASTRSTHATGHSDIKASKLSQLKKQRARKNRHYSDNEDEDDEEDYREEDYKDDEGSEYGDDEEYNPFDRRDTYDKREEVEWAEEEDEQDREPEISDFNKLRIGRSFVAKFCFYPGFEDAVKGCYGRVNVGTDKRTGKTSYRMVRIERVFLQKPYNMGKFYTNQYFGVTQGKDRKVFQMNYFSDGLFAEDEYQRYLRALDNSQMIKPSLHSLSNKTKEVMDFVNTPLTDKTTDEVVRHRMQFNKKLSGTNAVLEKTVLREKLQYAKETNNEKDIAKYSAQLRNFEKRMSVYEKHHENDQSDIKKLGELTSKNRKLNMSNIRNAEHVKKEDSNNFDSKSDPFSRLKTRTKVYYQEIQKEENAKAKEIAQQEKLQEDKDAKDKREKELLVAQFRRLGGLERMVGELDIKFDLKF

Substance	effect of a mutation on the interaction [1]	effect of a mutation on the interaction [2]
DNA-directed RNA polymerase II subunit RPB1 (Saccharomyces cerevisiae), P04050 S1560D	disrupting interaction	decreasing interaction
DNA-directed RNA polymerase II subunit RPB1 (Saccharomyces cerevisiae), P04050 S1557D	disrupting interaction	decreasing interaction
